In the supplement of paper PMC10126150:
± gives the standard deviation of the averaged measurements.

System: ATP
Assay: switch fluorescence ratio, 500 uM ATP over buffer (Cy3 cluster intensity, sum of 5 cycles each) (fold (ratio)); higher = stronger signal-on switching upon ATP binding; sequences stand for … in TCGTCGGCAGCGTCAGATGTGTATAAGAGACAGTTTTTTTTTTTTTTTTTTTTTTTTT…TC
Conditions: aptamer strand: ATP DNA aptamer (quencher-CACCTGGGGGAGTATTGCGGAGGAAGG + anchor), 100 nM annealed; ATP concentration: 500 uM
Procedure, shortened: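 Cy3-labelled switching-strand clusters on a modified Illumina MiSeq flow-cell were annealed to 100 nM quencher-labelled ATP aptamer and imaged first in selection buffer, then after 15 min with 500 uM ATP at 22 °C. NaOH stripping and re-annealing separated each of five buffer/ATP cycles, and clusters outside 100-1000 RFU were excluded. The fluorescence ratio sums target-cycle Cy3 intensity over buffer-cycle Cy3 intensity per cluster and averages it per switch-domain sequence.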
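Also: ATP exposure 15 min at 22 °C before imaging.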

Row | Sequence | switch fluorescence ratio
1 | GTGTGATCTC | 0.992 ± 0.046
2 | GTGTGGAGGG | 1.016 ± 0.0016
3 | GTGTGGCAGG | 0.992 ± 0.024
4 | GTGTGGGAAG | 1.01 ± 0.028
5 | GTGTGGGGAT | 1 ± 0.044
6 | GTGTGGGGCT | 1 ± 0.019
7 | GTGTGTAGGG | 0.999 ± 0.039
8 | GTGTGTCCGG | 0.987 ± 0.026
9 | GTGTGTCTGT | 0.991 ± 0.021
10 | GTGTGTGGCT | 0.976 ± 0.051
11 | GTGTGTTAAC | 0.9738 ± 0.0095
12 | GTGTGTTGGG | 0.984 ± 0.026
13 | GTGTGTTTAG | 0.9892 ± 0.0058
14 | GTGTGTTTGC | 1.004 ± 0.0058
15 | GTGTTAAGGA | 0.995 ± 0.02
16 | GTGTTAAGGG | 0.979 ± 0.028
17 | GTGTTAAGTA | 1.0306 ± 0.00088
18 | GTGTTACGTT | 1.02 ± 0.021
19 | GTGTTAGCTA | 1 ± 0.011
20 | GTGTTAGGCT | 0.978 ± 0.012
21 | GTGTTAGGTT | 1.01 ± 0.017
22 | GTGTTCAAGG | 0.971 ± 0.015
23 | GTGTTCATCG | 0.973 ± 0.037
24 | GTGTTCGGGC | 1.02 ± 0.011
25 | GTGTTCTAAA | 1.03 ± 0.041
26 | GTGTTGGTAG | 0.984 ± 0.018

Row | Sequence | switch fluorescence ratio
27 | GTGTTGGTTG | 0.982 ± 0.038
28 | GTGTTGGTTT | 0.986 ± 0.024
29 | GTGTTTAAAG | 0.98 ± 0.02
30 | GTGTTTAAGC | 0.978 ± 0.012
31 | GTGTTTATAG | 0.993 ± 0.018
32 | GTGTTTGGGA | 0.997 ± 0.033
33 | GTGTTTGGGG | 0.977 ± 0.023
34 | GTGTTTTCTT | 1.006 ± 0.0025
35 | GTTAAAAAGA | 1.08 ± 0.22
36 | GTTAAAAGGT | 1 ± 0.039
37 | GTTAAAAGTG | 0.987 ± 0.03
38 | GTTAAAATTT | 1.001 ± 0.0014
39 | GTTAAATCTT | 1 ± 0.042
40 | GTTAAGAAAG | 1.01 ± 0.012
41 | GTTAAGGATT | 1.03 ± 0.085
42 | GTTAAGGGGT | 1.007 ± 0.0026
43 | GTTAATGTCC | 0.994 ± 0.014
44 | GTTAATTACA | 1.026 ± 0.0096
45 | GTTACAGGTC | 1.006 ± 0.0019
46 | GTTACATTAA | 1.01 ± 0.021
47 | GTTACCCGA | 0.98 ± 0.016
48 | GTTACGGGGA | 1.02 ± 0.051
49 | GTTACTTGCC | 0.992 ± 0.039
50 | GTTACTTGCT | 1.01 ± 0.059
51 | GTTACTTTGT | 0.992 ± 0.0075
52 | GTTAGCACCC | 1.04 ± 0.04

Row | Sequence | switch fluorescence ratio
53 | GTTAGCCTTG | 1 ± 0.039
54 | GTTAGGGCGG | 0.998 ± 0.042
55 | GTTAGGGTAG | 0.992 ± 0.025
56 | GTTAGGTAGC | 0.997 ± 0.011
57 | GTTAGTATTG | 0.998 ± 0.021
58 | GTTAGTCTGA | 1.01 ± 0.043
59 | GTTAGTGGCA | 0.984 ± 0.012
60 | GTTAGTGTGC | 0.984 ± 0.013
61 | GTTAGTTGGT | 0.993 ± 0.017
62 | GTTAGTTGTT | 0.987 ± 0.013
63 | GTTATAACCG | 0.993 ± 0.024
64 | GTTATAAGTC | 1.01 ± 0.026
65 | GTTATACATT | 1.02 ± 0.011
66 | GTTATACGAA | 1.028 ± 0.0085
67 | GTTATATAAG | 0.984 ± 0.011
68 | GTTATATATG | 1.015 ± 0.0029
69 | GTTATATGTT | 1 ± 0.03
70 | GTTATATTTG | 0.997 ± 0.031
71 | GTTATCCGGG | 1.01 ± 0.036
72 | GTTATCGGAC | 1.01 ± 0.015
73 | GTTATCGTGC | 0.992 ± 0.059
74 | GTTATGCCGG | 0.97 ± 0.094
75 | GTTATTAGCG | 0.969 ± 0.05
76 | GTTATTTTCC | 1.01 ± 0.071
77 | GTTCACGGGA | 1 ± 0.058
78 | GTTCAGAGGG | 1.05 ± 0.1

Row | Sequence | switch fluorescence ratio
79 | GTTCATACGG | 1.06 ± 0.043
80 | GTTCCAGAGG | 1.03 ± 0.011
81 | GTTCCGCGGT | 1.371 ± 0.0055
82 | GTTCCTTGGA | 1.01 ± 0.045
83 | GTTCGACTCC | 1.15 ± 0.014
84 | GTTCGGAGTG | 0.9877 ± 0.0086
85 | GTTCGGCGAA | 1.02 ± 0.024
86 | GTTCGGGCTC | 1.03 ± 0.019
87 | GTTCGGGGAC | 1.026 ± 0.0094
88 | GTTCGGTATG | 0.984 ± 0.033
89 | GTTCGGTGGA | 1 ± 0.041
90 | GTTCGTGTGG | 0.987 ± 0.028
91 | GTTCTAGGGT | 0.9743 ± 0.0042
92 | GTTCTCTGGG | 0.987 ± 0.034
93 | GTTCTGATGT | 1.01 ± 0.029
94 | GTTCTTGTTC | 1.004 ± 0.0069
95 | GTTCTTTATC | 0.994 ± 0.018
96 | GTTCTTTTAT | 1.01 ± 0.024
97 | GTTGAAACAC | 1.02 ± 0.046
98 | GTTGAAGCCC | 1.013 ± 0.0071
99 | GTTGAATTAT | 0.987 ± 0.016
100 | GTTGACCTCG | 0.992 ± 0.03
101 | GTTGAGAGTC | 0.995 ± 0.038
102 | GTTGAGCTGG | 0.971 ± 0.019
103 | GTTGATAGGA | 0.988 ± 0.03
104 | GTTGATCCGA | 0.971 ± 0.013

Row | Sequence | switch fluorescence ratio
105 | GTTGCAGGGG | 1.08 ± 0.013
106 | GTTGCAGTTC | 1.01 ± 0.034
107 | GTTGCGCGTC | 1.03 ± 0.024
108 | GTTGCGGTTG | 0.986 ± 0.039
109 | GTTGCTAGAG | 1.006 ± 0.0035
110 | GTTGCTAGTG | 0.973 ± 0.024
111 | GTTGCTTGCG | 1 ± 0.02
112 | GTTGGAAAGG | 0.97 ± 0.039
113 | GTTGGAATTG | 0.992 ± 0.024
114 | GTTGGACAGC | 1.01 ± 0.023
115 | GTTGGAGGA | 1.04 ± 0.061
116 | GTTGGAGGCT | 0.989 ± 0.096
117 | GTTGGAGTTT | 0.975 ± 0.016
118 | GTTGGATGCT | 0.949 ± 0.028
119 | GTTGGATTTG | 0.994 ± 0.017
120 | GTTGGCCGGC | 1.11 ± 0.073
121 | GTTGGCGACG | 0.946 ± 0.012
122 | GTTGGCTATT | 0.984 ± 0.007
123 | GTTGGGACGG | 0.9569 ± 0.006
124 | GTTGGGACGT | 0.973 ± 0.013
125 | GTTGGGCGGG | 0.991 ± 0.035
126 | GTTGGGGCAG | 0.961 ± 0.034
127 | GTTGGGGGGT | 0.989 ± 0.02
128 | GTTGGGTAGG | 0.963 ± 0.028
129 | GTTGGGTATT | 1.01 ± 0.021
130 | GTTGGGTTTG | 0.999 ± 0.026

Row | Sequence | switch fluorescence ratio
131 | GTTGGGTTTT | 1.02 ± 0.06
132 | GTTGGTACTT | 0.991 ± 0.02
133 | GTTGGTATAG | 1.01 ± 0.025
134 | GTTGGTATTT | 0.971 ± 0.023
135 | GTTGGTCTGA | 0.954 ± 0.022
136 | GTTGGTGATT | 0.9959 ± 0.0062
137 | GTTGGTGGCG | 1.02 ± 0.044
138 | GTTGGTGGGT | 0.98 ± 0.032
139 | GTTGGTTAGG | 0.959 ± 0.0071
140 | GTTGTAAGGT | 0.986 ± 0.034
141 | GTTGTAGAGT | 1.03 ± 0.032
142 | GTTGTAGGGG | 0.987 ± 0.024
143 | GTTGTATCAC | 0.9832 ± 0.0097
144 | GTTGTCGGGT | 1.05 ± 0.12
145 | GTTGTCTAAT | 0.9991 ± 0.0073
146 | GTTGTGAGAG | 0.999 ± 0.054
147 | GTTGTGCAAT | 1.16 ± 0.0012
148 | GTTGTGCTGG | 1.01 ± 0.018
149 | GTTGTGGCTC | 0.975 ± 0.036
150 | GTTGTGGGGG | 1.01 ± 0.049
151 | GTTGTGGTTA | 1.02 ± 0.015
152 | GTTGTGTCGG | 1.01 ± 0.019
153 | GTTGTGTGGG | 0.985 ± 0.035
